Source: article PMC1779432

Target: Soluble HLA-DR4 (DRB1*0401) (human)

Row | IL-4 secretion by pooled splenocytes and lymph node cells of CII-immunized DR4 transgenic mice (chimeric DR4 on the cells) cultured with 100 μg/ml peptide [pg/mL] | Substance
1 | 66 | CII(256-276)(F263N, E266A) analog peptide
2 | 48 | CII(256-276)(F263N, E266D) analog peptide
